Test results as given in patent US5955073.

Target: human transferrin receptor (human) (UniProt P02786)

- inhibition of protein synthesis of K562 cells (% inhibition (P1, 0.1 µM)): 99
Substance: 454A12-RNase conjugate (monoclonal antibody 454A12 against the human transferrin receptor coupled to RNase A)
